± gives the uncertainty stated by the source.
Test: self-splicing fitness, log relative to wild type (ln ratio); higher = more splicing; Tetrahymena group I intron in knt gene, E. coli kanamycin selection, DiMSum; sequences stand for … in CUCUCU…GGAGGGAAAAGUUAUCAGGCAUGCACCUGGUAGCUAGUCUUUAAACCAAUAGAUUGCAUCGGUUUAAAAGGCAAGACCGUCAAAUUGCGGGAAAGGGGUCAACAGCCGUUCAGUACCAAGUCUCAGGGGAAACUUUGAGAUGGCCUUGCAAAGGGUAUGGUAAUAAGCUGACGGACAUGGUCCUAACCACGCAGCCAAGUCCUAAGUCAACAGAUCUUCUGUUGAUAUGGAUGCAGUUCACAGACUAAAUGUCGGUCGGGGAAGAUGUAUUCUUCUCAUAAGAUAUAGUCGGACCUCUCCUUAAUGGGAGCUAGCGGAUGAAGUGAUGCAACACUGGAGCCGCUGGGAACUAAUUUGUAUGCGAAAGUAUAUUGAUUAGUUUUGGAGUACUCGUGGUCG
Outline: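 Colonies from six replicate transformations of E. coli BL21(DE3) were pooled and amplicon-sequenced on an Illumina HiSeq 2500. The library placed an intron with all eight P1ex-region nucleotides randomised inside the knt kanamycin-resistance gene on pET-22b(+), and cells grew overnight at 37°C or 30°C on LB agar with or without 25 μg/mL kanamycin (plus 100 μg/mL carbenicillin, 50 μM IPTG, 0.2% rhamnose). Fitness is the DiMSum error-weighted combination of wild-type-normalised replicate fold changes, kanamycin versus none.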

Sequence | self-splicing fitness (ln) (30 °C) | self-splicing fitness (ln) (37 °C)
UGCCAGCAAUAUUACGUUAA | -2.48 ± 0.15 | -0.729 ± 0.095
UGCCAGCAAUAUUACGUUUU | -3.79 ± 0.18 | -2.56 ± 0.2
UGCGAGCAAUAUUACGAAAG | -2.87 ± 0.29 | -2.87 ± 0.43
UGCGAGCAAUAUUACGAAGG | -1.75 ± 0.2 | -1.91 ± 0.44
UGCGAGCAAUAUUACGACGU | -2.92 ± 0.25 | -0.731 ± 0.17
UGCGAGCAAUAUUACGACUC | -2.71 ± 0.27 | -2.25 ± 0.25
UGCGAGCAAUAUUACGCAUU | -5.15 ± 0.34 | -3.1 ± 0.23
UGCGAGCAAUAUUACGCGGG | -2.61 ± 0.3 | 
UGCGAGCAAUAUUACGCUGU | -3.76 ± 0.21 | -2.24 ± 0.31
UGCGAGCAAUAUUACGGACC | -2.33 ± 0.19 | 
UGCGAGCAAUAUUACGGCAG | -1.33 ± 0.15 | -1.59 ± 0.21
UGCGAGCAAUAUUACGGCUG | -1.04 ± 0.1 | -0.349 ± 0.15
UGCGAGCAAUAUUACGGGGU | -2.77 ± 0.2 | -3.12 ± 0.35
UGCGAGCAAUAUUACGUGCA | -2.46 ± 0.2 | -1.35 ± 0.21
UGCGAGCAAUAUUACGUUAG | -2.68 ± 0.27 | -2.01 ± 0.33
UGCUAGCAAUAUUACGAACG | -0.171 ± 0.097 | 0.803 ± 0.12
UGCUAGCAAUAUUACGACUU | -0.801 ± 0.2 | -0.152 ± 0.17
UGCUAGCAAUAUUACGAGAC | -3.12 ± 0.35 | -2.11 ± 0.36
UGCUAGCAAUAUUACGAGGA | -2.99 ± 0.26 | -1.62 ± 0.17
UGCUAGCAAUAUUACGAGUG | -1.98 ± 0.12 | -1.08 ± 0.11
UGCUAGCAAUAUUACGAUAG | -2.49 ± 0.1 | -0.62 ± 0.1
UGCUAGCAAUAUUACGAUUA | -0.493 ± 0.095 | -0.286 ± 0.096
UGCUAGCAAUAUUACGCAGA | -4.03 ± 0.31 | -2.26 ± 0.17
UGCUAGCAAUAUUACGCAUA | -2.58 ± 0.18 | -1.37 ± 0.14

Sequence | self-splicing fitness (ln) (30 °C) | self-splicing fitness (ln) (37 °C)
UGCUAGCAAUAUUACGCCUA | -0.454 ± 0.15 | -0.0492 ± 0.15
UGCUAGCAAUAUUACGCUCG | -1.2 ± 0.14 | -0.909 ± 0.17
UGCUAGCAAUAUUACGCUUG | -3.74 ± 0.21 | -0.96 ± 0.13
UGCUAGCAAUAUUACGGAAA | -2.19 ± 0.27 | -2.19 ± 0.31
UGCUAGCAAUAUUACGGACA | -0.668 ± 0.098 | 0.41 ± 0.12
UGCUAGCAAUAUUACGGAGA |  | -2 ± 0.22
UGCUAGCAAUAUUACGGAUU | -1.7 ± 0.14 | -2.02 ± 0.13
UGCUAGCAAUAUUACGGCCU | 0.151 ± 0.14 | 0.383 ± 0.16
UGCUAGCAAUAUUACGGCUG | -0.317 ± 0.15 | -0.46 ± 0.18
UGCUAGCAAUAUUACGGGAC | -2.52 ± 0.2 | -1.92 ± 0.18
UGCUAGCAAUAUUACGGUAA | -1.03 ± 0.15 | -1.47 ± 0.12
UGCUAGCAAUAUUACGUCCU | -1.19 ± 0.12 | -0.143 ± 0.14
UGCUAGCAAUAUUACGUCGC | -3.37 ± 0.2 | -2.65 ± 0.41
UGCUAGCAAUAUUACGUGAC | -3.39 ± 0.35 | -2.56 ± 0.41
UGCUAGCAAUAUUACGUGUC | -3.7 ± 0.42 | -2.72 ± 0.38
UGCUAGCAAUAUUACGUUCA | -0.255 ± 0.076 | 0.0245 ± 0.12
UGGAAGCAAUAUUACGAACU | 0.00939 ± 0.14 | -0.029 ± 0.13
UGGAAGCAAUAUUACGACCC | -0.0757 ± 0.24 | -0.147 ± 0.25
UGGAAGCAAUAUUACGACGU | -1.62 ± 0.15 | -0.761 ± 0.2
UGGAAGCAAUAUUACGAUAC | -3.37 ± 0.49 | -2.54 ± 0.48
UGGAAGCAAUAUUACGCCGA | -1.53 ± 0.26 | -0.201 ± 0.27
UGGAAGCAAUAUUACGCCUU | -2.28 ± 0.31 | 
UGGAAGCAAUAUUACGCGGG | -3.32 ± 0.24 | -1.29 ± 0.22
UGGAAGCAAUAUUACGCUAG | -0.433 ± 0.1 | -0.523 ± 0.17
